Article doi:10.1101/2020.10.21.349639 (bioRxiv, 2020)

Biological target: T1, NorC (wild type) (Staphylococcus aureus subsp. aureus COL …)
T1 chain: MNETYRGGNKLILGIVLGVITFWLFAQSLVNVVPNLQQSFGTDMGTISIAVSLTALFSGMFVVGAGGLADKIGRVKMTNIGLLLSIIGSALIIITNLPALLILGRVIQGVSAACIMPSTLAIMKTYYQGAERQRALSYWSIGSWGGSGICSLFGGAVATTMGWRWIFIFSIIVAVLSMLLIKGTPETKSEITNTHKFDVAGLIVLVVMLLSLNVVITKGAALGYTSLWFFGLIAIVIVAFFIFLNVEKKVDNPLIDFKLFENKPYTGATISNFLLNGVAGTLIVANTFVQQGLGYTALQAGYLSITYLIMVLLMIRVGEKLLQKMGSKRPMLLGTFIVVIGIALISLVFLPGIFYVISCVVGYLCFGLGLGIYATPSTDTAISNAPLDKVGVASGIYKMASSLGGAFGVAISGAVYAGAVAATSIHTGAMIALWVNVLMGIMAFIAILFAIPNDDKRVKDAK
Experiment: ITC

Kd: 38 ± 5 nM
B1: single-domain Indian camelid antibody (ICab), Zn2+-bound (VHH)
VHH: QVQLEESGGGSVQAGGSLRLSCAASGYMYSTYSTYCMGWFRQAPGKEREGVAFIKRGDHSTYYTDSVKGRFTISQDSAKNTVSLQMNNLKPEDTAIYYCAADFAHSFLLSVHSGAGQYSYWGQGTQVTVSS
